The text below walks through data of patent US20140237632A1 (UNIVERSITY OF CHICAGO, published 2014).

Data set [1] concerns the molecule itself. Nature of the data set: self-association; FRET in spectra and nondenaturing SDS-PAGE.
Data set [2] deals with the molecule itself. Put plainly: self-association; nondenaturing SDS-PAGE. The protocol:
FIG. 4. Decreasing the net charge near the N terminus of DsRed reduces aggregation of the protein. (A) Nondenaturing SDS-PAGE of purified DsRed1 (WT), the Round 1 variant (R1), the Round 3 variant (R3), the Round 4 variant (R4), DsRed.T1 (T1), DsRed.T3 (T3) and DsRed.T4 (T4). 1 μg of each purified DsRed variant was mixed with SDS-containing sample buffer on ice and immediately electrophoresed at 4° C. in a 10% poly-acrylamide gel, followed by staining with Coomassie Blue. WT* and T4*: Additional aliquots of DsRed1 and DsRed.T4 were denatured by boiling prior to electrophoresis. MW: broad range prestained protein standard (Bio-Rad). (B) To measure the solubilities of the fluorescent proteins in E. coli, cells carrying pREP4 plus pQE31-based expression vectors encoding DsRed1, DsRed2, the Round 3 variant, the Round 4 variant, or EGFP were grown to an OD₆₀₀ of 0.5, induced with IPTG for 7 h, then lysed with B-PER II and centrifuged for 20 min at 27,000×g. […] The bound antibody was detected using the ECL-Plus kit (Amersham) and a Molecular Dynamics Storm 860 phosphorimager. For each fluorescent protein, a dilution series from the bacterial extract was analyzed, and a sample within the linear range for the detection system was chosen. The percentage of each protein in the supernatant fraction was then quantified. […]

B1: DsRed.T3 (other)
chain: MASSEDVIKEFMRFKVRMEGSVNGHEFEIEGEGEGRPYEGTQTAKLKVTKGGPLPFAWDILSPQFQYGSKVYVKHPADIPDYKKLSFPEGFKWERVMNFEDGGVVTVTQDSSLQDGCFIYKVKFIGVNFPSDGPVMQKKTMGWEPSTERLYPRDGVLKGEIHKALKLKDGGHYLVEFKSIYMAKKPVQLPGYYYVDSKLDITSHNEDYTIVEQYERTEGRHHLFL
notes: Fluorescent protein variant, purified with a hexahistidine tag from E. coli; Entered only for its self-association (tetramer); not shown: N-terminal hexahistidine tag (pQE31) and polylinker upstream of the start codon, carrying P(-4)L
For B1, the binding result in data set [1] is recorded as “binds”.

B2: DsRed Round 4 variant (other)
chain: MASSEDVIKEFMRFKVRMEGSVNGHEFEIEGEGEGRPYEGTQTAKLKVTKGGPLPFAWDILSPQFQYGSKVYVKHPADIPDYKKLSFPEGFKWERVMNFEDGGVVTVTQDSSLQDGCFIYKVKFIGVNFPSDGPVMQKKTMGWEASTERLYPRDGVLKGEIHKALKLKDGGHYLVEFKSIYMAKKPVQLPGYYYVDSKLDITSHNEDYTIVEQYERTEGRHHLFL
notes: Round 3 variant plus R2A, K5E and N6D; also called R4; not shown: N-terminal hexahistidine tag (pQE31) and polylinker upstream of the start codon, carrying P(-4)L
With B2, the binding result in data set [2] is “binds”.

B3: DsRed.T4 (other)
chain: MASSEDVIKEFMRFKVRMEGSVNGHEFEIEGEGEGRPYEGTQTAKLKVTKGGPLPFAWDILSPQFQYGSKVYVKHPADIPDYKKLSFPEGFKWERVMNFEDGGVVTVTQDSSLQDGCFIYKVKFIGVNFPSDGPVMQKKTMGWEPSTERLYPRDGVLKGEIHKALKLKDGGHYLVEFKSIYMAKKPVQLPGYYYVDSKLDITSHNEDYTIVEQYERAEGRHHLFL
notes: as for B1
With B3, the binding result in data set [1] was “binds”.
